One may read the Kd as the concentration at which binding is half-saturated.

Experimental findings from PMC3795256, “Dynamic Regulation of Ero1α and Peroxiredoxin 4 Localization in the Secretory Pathway*^([image sbox.jpg])” (The Journal of Biological Chemistry, 2013) are described below.

B1: recombinant human ERp44 (natural protein, UniProt Q9BS26 30-406, looked up)
chain: EITSLDTENIDEILNNADVALVNFYADWCRFSQMLHPIFEEASDVIKEEFPNENQVVFARVDCDQHSDIAQRYRISKYPTLKLFRNGMMMKREYRGQRSVKALADYIRQQKSDPIQEIRDLAEITTLDRSKRNIIGYFEQKDSDNYRVFERVANILHDDCAFLSAFGDVSKPERYSGDNIIYKPPGHSAPDMVYLGAMTNFDVTYNWIQDKCVPLVREITFENGEELTEEGLPFLILFHMKEDTESLEIFQNEVARQLISEKGTINFLHADCDKFRHPLLHIQKTPADCPVIAIDSFRHMYVFGDFKDVLIPGKLKQFVFDLHSGKLHREFHHGPDPTDTAPGEQAQDVASSPPESSFQKLAPSEYRYTLLRDRDEL
notes: human ERp44, recombinant; a construct made in E. coli probably lacks the signal peptide; source: E. coli BL21 (DE3), purified (HisTrap, Superdex 200, Resource Q)
B2: recombinant human Prx4 (natural protein, UniProt Q13162 38-271, looked up)
chain: WETEERPRTREEECHFYAGGQVYPGEASRVSVADHSLHLSKAKISKPAPYWEGTAVIDGEFKELKLTDYRGKYLVFFFYPLDFTFVCPTEIIAFGDRLEEFRSINTEVVACSVDSQFTHLAWINTPRRQGGLGPIRIPLLSDLTHQISKDYGVYLEDSGHTLRGLFIIDDKGILRQITLNDLPVGRSVDETLRLVQAFQYTDKHGEVCPAGWKPGSETIIPDPAGKLKYFDKLN
notes: human Prx4, recombinant; a construct made in E. coli probably lacks the signal peptide; also called purified human Prx4; peroxiredoxin 4; source: E. coli BL21 (DE3), purified (HisTrap, Superdex 200, Resource Q)
B3: recombinant human Ero1α (WT) (natural protein, UniProt Q96HE7 24-468, looked up)
chain: EEQPPETAAQRCFCQVSGYLDDCTCDVETIDRFNNYRLFPRLQKLLESDYFRYYKVNLKRPCPFWNDISQCGRRDCAVKPCQSDEVPDGIKSASYKYSEEANNLIEECEQAERLGAVDESLSEETQKAVLQWTKHDDSSDNFCEADDIQSPEAEYVDLLLNPERYTGYKGPDAWKIWNVIYEENCFKPQTIKRPLNPLASGQGTSEENTFYSWLEGLCVEKRAFYRLISGLHASINVHLSARYLLQETWLEKKWGHNITEFQQRFDGILTEGEGPRRLKNLYFLYLIELRALSKVLPFFERPDFQLFTGNKIQDEENKMLLLEILHEIKSFPLHFDENSFFAGDKKEAHKLKEDFRLHFRNISRIMDCVGCFKCRLWGKLQTQGLGTALKILFSEKLIANMPESGPSYEFHLTRQEIVSLFNAFGRISTSVKELENFRNLLQNIH
notes: human Ero1α, wild type, recombinant; also called purified human Ero1α; source: recombinant, purified

Holding throughout (details): both partners purified
The target of assay [1] is B3. Put plainly: SPR; ProteOn XPR36; Ero1α (WT) or Prx4 amine-coupled to a GLC chip, ERp44 as analyte (0.444–36 μM); 25 °C; 20 mM HEPES-NaOH pH 6.4, 150 mM NaCl, 0.001% Tween, 2 mM EDTA; two-state model. (In general: SPR reads the build-up and loss of mass on a sensor chip optically.)
In assay [2] the target is B3. Put plainly: SPR; ProteOn XPR36; Ero1α (WT) or Prx4 amine-coupled to a GLC chip, PDI or ERp44 as analyte (0.444–36 μM); 25 °C; 20 mM HEPES-NaOH pH 7.4, 150 mM NaCl, 0.001% Tween, 2 mM EDTA; two-state model.
In assay [3] the target is B1. Description: SPR; ProteOn XPR36; Ero1α (WT) or Prx4 amine-coupled to a GLC chip, ERp44 as analyte (0.444–36 μM); 25 °C; 20 mM HEPES-NaOH pH 6.4, 150 mM NaCl, 0.001% Tween, 2 mM EDTA; two-state model.
The target in assay [4] is B1. Put plainly: SPR; ProteOn XPR36; Ero1α (WT) or Prx4 amine-coupled to a GLC chip, PDI or ERp44 as analyte (0.444–36 μM); 25 °C; 20 mM HEPES-NaOH pH 7.4, 150 mM NaCl, 0.001% Tween, 2 mM EDTA; two-state model.
For the next assay, the target named is T1, recombinant human PDI (human, UniProt P07237 18-508).
T1 construct: human PDI, recombinant; also called protein disulfide isomerase; source: recombinant, purified
T1 sequence (P07237 18-508): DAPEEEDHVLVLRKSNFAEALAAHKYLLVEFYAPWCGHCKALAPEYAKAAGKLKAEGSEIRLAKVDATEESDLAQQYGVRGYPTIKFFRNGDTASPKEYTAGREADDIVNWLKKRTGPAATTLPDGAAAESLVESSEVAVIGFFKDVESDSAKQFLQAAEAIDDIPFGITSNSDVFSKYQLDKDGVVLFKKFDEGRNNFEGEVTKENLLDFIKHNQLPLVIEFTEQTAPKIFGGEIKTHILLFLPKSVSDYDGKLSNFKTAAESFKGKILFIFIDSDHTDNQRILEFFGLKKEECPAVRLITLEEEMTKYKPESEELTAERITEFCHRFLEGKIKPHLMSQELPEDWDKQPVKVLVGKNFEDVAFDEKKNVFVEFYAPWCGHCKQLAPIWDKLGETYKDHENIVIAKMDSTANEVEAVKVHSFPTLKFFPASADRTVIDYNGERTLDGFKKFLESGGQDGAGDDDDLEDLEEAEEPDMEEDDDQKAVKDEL
Described as above.

Regarding B1, the results for the dissociation constant (Kd) in assay [1] and in assay [2] were 5.15 µM and 10.4 µM, respectively. In the case of B2, the values for the dissociation constant (Kd) with recombinant human ERp44 [3] and with recombinant human ERp44 [4] were 6.92 µM and 17.9 µM, respectively. Consider B3, for which the Kd in the assay with recombinant human PDI came to 1.94 µM.
